Data reported in patent publication US20200239570A1 (CRESCENDO BIOLOGICS, published 2020).

Tests used:
[1] = target: T1, human PD-1 expressed on cells (CHO human PD-1 cells) (human, UniProt Q15116 21-288); test: FMAT epitope competition on CHO human PD-1 cells; competitor 2 nM 2.1-Strep tagged protein
T1 construct: CHO cells in the FMAT assays; Jurkat reporter cells in the reporter assay; primary CD4+ T cells in the mixed lymphocyte reaction; also called CHO TREX human PD1 cell line; CHO PD-1
Procedure: (§1) For the epitope competition assay reagents were prepared in FMAT assay buffer. […] Plates were incubated for a minimum of 1.5 hours at room temperature then fluorescence measured in the FL2 (502 nm-537 nm) and FL5 (677-800 nm) channels on the Mirrorball plate reader (TTP) following excitation at 488 nm and 640 nm. Data was expressed as a % of the total binding control (i.e. % control) after subtraction of the background signal determined from the non-specific binding control wells.

[2] = target: T1, human PD-1 expressed on cells (CHO …); test: 2.1 epitope competition assay (FMAT, CHO human PD-1 cells; competitor 2.1-Strep); VH pre-incubated in human serum at 37 C, Day 7
Procedure: (§2) Serum stability of VH was assessed by measurement of its activity following incubation for 0, 1, 4 or 7 days in both human and mouse serum (Sigma M5905). The pre-incubated samples were serially diluted and tested in the 2.1 epitope competition assay.
as §1

[3] = target: T1, human PD-1 expressed on cells (CHO …); test: FMAT epitope competition on CHO human PD-1 cells; competitor 2 nM 1.1-Strep tagged protein
Procedure: as §1

[4] = target: T1, human PD-1 expressed on cells (CHO …); test: FMAT, His-tagged VH on CHO human PD-1 cells
[5] = target: T1, human PD-1 expressed on cells (CHO …); test: 2.1 epitope competition assay (FMAT, CHO human PD-1 cells; competitor 2.1-Strep); VH pre-incubated in human serum, Day 0; Day 0, human serum
Procedure: as §2, §1

[6] = target: T2, mouse PD1 (R&D Systems cat no. 1021-PD) (mouse, UniProt Q02242 25-167); test: HTRF binding assay, 2 nM mouse PD-1
T2 construct: bought recombinant protein; also called mouse PD-1 protein
T2 sequence (looked up): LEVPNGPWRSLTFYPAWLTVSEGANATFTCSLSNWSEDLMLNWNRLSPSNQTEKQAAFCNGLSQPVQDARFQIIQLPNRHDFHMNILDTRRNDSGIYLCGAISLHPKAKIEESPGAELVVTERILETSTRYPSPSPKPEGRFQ

[7] = target: T1, human PD-1 expressed on cells (CHO …); test: 2.1 epitope competition assay (FMAT, CHO human PD-1 cells; competitor 2.1-Strep); VH pre-incubated in mouse serum, Day 0
Procedure: as §2, §1

[8] = target: T1, human PD-1 expressed on cells (CHO …); test: 2.1 epitope competition assay (FMAT, CHO human PD-1 cells; competitor 2.1-Strep); VH pre-incubated in mouse serum at 37 C, Day 7
Procedure: as §2, §1

[9] = target: T3, cynomolgus PD-1 (Acro Biosystems cat no. PD1-C5254) (cynomolgus, UniProt B0LAJ3 25-170); test: HTRF binding assay, His-tagged VH on 2 nM recombinant PD-1
T3 construct: bought recombinant protein; also called cyno PD-1; cynomolgus PD-1 recombinant protein; not shown: Human Fc tag of the vendor's construct, and any linker to it; The Fc is implied by detection with anti human-Fc cryptate
Procedure: (§3) Purified VH were tested for their ability to bind to human PD-1 (R&D Systems cat no. 1086-PD), cynomolgus PD-1 (Acro Biosystems cat no. PD1-C5254) and mouse PD1 (R&D Systems cat no. 1021-PD) in an HTRF Binding assay format. All reagents and serially diluted VH were prepared in assay buffer containing PBS, 0.1% BSA and 0.4M Potassium Fluoride. Samples or assay buffer (non-specific binding) were incubated with 2 nM human/cynomolgus or mouse PD-1, 1 nM Anti human-Fc Cryptate PAb (Cisbio cat. no. 61HFCKLB) and 30 nM anti His-D2 (CisBio cat no 61HISDLA) in black 384-shallow well assay plates for a minimum of 3 hours at room temperature. Time-resolved fluorescent emission at 620 nm and 665 nm was measured following excitation at 337 nm on the BMG PHERAstar plate reader. The HTRF ratio were calculated ((665 nm emission/620 nm emission)*10000) and the data corrected for (non-specific binding) to give the specific binding signal.

[10] = target: T4, recombinant human PD-1 Fc chimera (human, UniProt Q15116 25-167); test: as above
T4 construct: Bought (R&D 1086-PD); Labelled with europium cryptate in the PD-L2 HTRF assay; also called human PD-1 (R&D Systems cat no. 1086-PD); human PD-1-huFc; not shown: human Fc of the bought chimera
Procedure: as §3

[11] = target: T1, human PD-1 expressed on cells (CHO …); test: 2.1 epitope competition assay (FMAT, CHO human PD-1 cells; competitor 2.1-Strep); VH pre-incubated in human serum at 37 C, Day 1
Procedure: as §2, §1

[12] = target: T1, human PD-1 expressed on cells (CHO …); test: 2.1 epitope competition assay (FMAT, CHO human PD-1 cells; competitor 2.1-Strep); VH pre-incubated in mouse serum at 37 C, Day 1
Procedure: as §2, §1

[13] = target: T4, recombinant human PD-1 Fc chimera; test: SPR (Biacore T200), PD-1-huFc amine-coupled to CM5, single cycle kinetics, 1:1 fit
Procedure: Binding kinetics of certain VH single domain antibodies binding to human PD-1-huFc were measured by surface plasmon resonance (SPR) technology using Biacore T200 instrument (GE Healthcare). Recombinant human PD-1-huFc was immobilized by standard amine coupling to CM5 sensorschip (GE Healthcare) using 0.01 mg/ml solution of antigen in 10 mM sodium acetate at pH 5.5. For the reference flow cell, a blank immobilisation was carried out. Single cycle kinetics assays were used to study the interaction, a five point, three-fold dilution series of each Humabody® was made with a top concentration of 30 nM. The binding kinetics were followed by flowing the Humabody® over the chip surface in HBS EP+ buffer at a flow rate of 30 μl/min. The contact time for each of the association steps was 180 seconds and the dissociation step was varied between 1200-3600 seconds. The data was fitted to a 1:1 binding model after double reference subtraction using the Biacore T200 Evaluation software.

[14] = target: T1, human PD-1 expressed on cells (CHO …); test: 2.1 epitope competition assay (FMAT, CHO human PD-1 cells; competitor 2.1-Strep); VH pre-incubated in human serum at 37 C, Day 4
Procedure: as §2, §1

[15] = target: T1, human PD-1 expressed on cells (CHO …); test: 2.1 epitope competition assay (FMAT, CHO human PD-1 cells; competitor 2.1-Strep); VH pre-incubated in mouse serum at 37 C, Day 4
Procedure: as §2, §1

T4 sequence (Q15116 25-167, change not shown): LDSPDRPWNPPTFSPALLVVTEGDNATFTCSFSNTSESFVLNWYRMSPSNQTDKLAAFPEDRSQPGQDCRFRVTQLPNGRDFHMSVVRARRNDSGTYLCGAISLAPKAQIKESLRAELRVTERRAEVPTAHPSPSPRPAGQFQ
T1 sequence (Q15116 21-288): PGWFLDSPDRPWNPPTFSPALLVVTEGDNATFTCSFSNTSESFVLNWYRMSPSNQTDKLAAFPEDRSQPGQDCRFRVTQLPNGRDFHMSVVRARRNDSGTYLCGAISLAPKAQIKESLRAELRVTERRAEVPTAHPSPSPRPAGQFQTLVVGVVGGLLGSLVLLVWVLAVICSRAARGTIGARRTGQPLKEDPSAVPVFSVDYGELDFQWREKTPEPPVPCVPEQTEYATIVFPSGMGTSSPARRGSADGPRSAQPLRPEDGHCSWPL
T3 sequence (B0LAJ3 entry or part of it limits assumed): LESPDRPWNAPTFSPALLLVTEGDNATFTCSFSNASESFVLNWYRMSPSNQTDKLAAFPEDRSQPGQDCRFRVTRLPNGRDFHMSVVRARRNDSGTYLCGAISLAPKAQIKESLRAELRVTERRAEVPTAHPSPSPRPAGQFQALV

- IC50 [1]: 9.7 nM
- IC50 [2]: 9.3 nM
- IC50 [3]: 8.9 nM
- EC50 [4]: 0.6 nM
- IC50 [5]: 12.9 nM
- binding result [6]: no binding
- IC50 [7]: 8.7 nM
- IC50 [8]: 11.6 nM
- EC50 [9]: 6 nM
- EC50 [10]: 2.6 nM
- IC50 [11]: 10.1 nM
- IC50 [12]: 9.3 nM
- Kd [13]: 4.24 nM
- koff [13]: 0.00134 s⁻¹
- kon [13]: 316000 M⁻¹ s⁻¹
- IC50 [14]: 10.2 nM
- IC50 [15]: 11.1 nM
B1: Humabody VH 1.39 (VHH)
VHH: EVQLVESGGGLVQPGRSLRLSCAASGFTFDDYALHWVRQAPGKDLEWVSGISWNGGSYGYADSVKGRFTISRDNAKNSLYLQMNSLRAEDTALYYCVREKGPGLTGSTADYYGLDAWGQGTMVTVSS
notes: human VH single domain antibody
